[ ]: non-standard residue; d: D form. pGlu = O=C1CC[C@@H](C(=O)O)N1 Bounds are passed on as bounds.

We go through three molecules from US5792742A, “Fibrin-binding peptide fragments of fibronectin” (New York University, priority 1994, dated 1998).

The test system of experiment [1] is fibrin. As to conditions: Husain et al. 1981; cited from earlier work.
Experiment [2] concerns fibrin. Description: ELISA: competitive inhibition of fibronectin binding to fibrin by type 1 recombinant modules. As to conditions: up to 5,000-50,000 molar excess compared to Fn. As to the method:
Fibrin-binding activity was also assessed by an ELISA. Fn was reacted with fibrin-coated microtiter plates and bound Fn was determined by incubation with a polyclonal rabbit anti-Fn antiserum followed by alkaline phosphatase-labeled anti-rabbit Ig. […] Thus, on a mole-per-mole basis, assuming complete attachment of all the fibrinogen applied to the polystyrene plate, total proteolytic conversion to fibrin, and accessibility of the binding sites, 0.8 moles of Fn per mole of fibrin were required to achieve maximum binding (assuming a molecular weight of 340 kDa for the fibrin hexamer and 440 kDa for the Fn dimer).
The recombinant Fn modules were used to inhibit the binding of Fn to the fibrin-coated microtiter plates. […] At this saturating concentration, the binding of Fn to fibrin was inhibited by 70%.
(In an ELISA, binding on a coated surface is turned into a signal by an enzyme label.)

Experiment [3] relates to fibrin. Nature of the experiment: Fibrin-SEPHAROSE affinity chromatography (binding and elution). Set-up: species or system bovine. The method, then:
Bovine fibrinogen was cross-linked to CNBr-activated SEPHAROSE™ (5 mg/ml beads) according to the manufacturer's instructions. Coupled fibrinogen was subsequently converted to fibrin by incubation with human thrombin to a final concentration of 5 NIH units/ml and 100 K.I. (kallikrein inhibitory) units/ml of aprotinin (in 0.05M Tris-HCI buffer, pH 7.6, containing 0.1M NaCl and 0.01M EDTA) for three hours, at room temperature (Gold, et al. (1983) Biochemistry 22, 4113-4119).
1.0M NaCl in 0.05M tris buffer, pH 8.0.
The fibrin-binding activity of the proteolytically derived 25.9 kDa fragment of Fn was determined by its ability to bind to a fibrin affinity matrix. […] FBB was used to equilibrate and wash the column. Following warming of the column to 22° C., the column was washed with FBB until absorbance at 280 nm (A280) was less than 0.01, and bound protein eluted with 0.05M Tris-HCl, 0.5M NaCl, 6M urea buffer, pH 7.6.
The module (500 μg/1.0 ml) was incubated for 4 hours (while rotating) at 4° C. in the presence of 1.0 ml fibrin-SEPHAROSE™ (5 mg fibrin/ml SEPHAROSE™ beads) equilibrated in […] Tris-HCl, 0.1M NaCl buffer, pH 7.6.
The 11 KDa peptide (50 μg/0.206 ml) was radiolabeled using the IODO-BEAD method (Pierce Chemical). The peptide was added to one IODO-BEAD in the presence of 100 μCi ^125 I (17.4 Ci/mg, New England Nuclear) and incubated on ice for 10 minutes. […]

For experiment [4], the system named is fibrin. As to conditions: 0-10 μM competitor, biotinylated Fn 2.3 nM.
Experimental: Since the anti-Fn detection system described for the ELISA above could not be used in Fn competition assays employing the intact Fn molecule or the 25.8 kDa proteolytic fragment, purified Fn was biotinylated using water soluble NHS-LC-Biotin (Pierce Chemm. Co.; according to the manufacturer's instructions) and binding to fibrin detected by alkaline phosphatase conjugated streptavidin (diluted 1/500 in FBBT/BSA) for 1 hour at 22° C., followed by the addition of p-nitrophenyl phosphate, as described above. To ensure that the biotinylation of the Fn had not affected its ability to bind to fibrin, fibrin-binding activity was tested by incubating increasing concentrations of biotinylated Fn (10-300 ng/0.1 ml FBB) with the fibrin-coated wells (200 ng) and detected (see FIG. 28A) using alkaline phosphatase-conjugated streptavidin and the reaction developed as described for Direct Elisa.
To compare the relative fibrin-binding affinities of the ^4 F1.^5 F1 recombinant module pair and the 25.9 kDa proteolytic fragment (^1 F1-^5 F1) with that of the native Fn molecule, these purified proteins were competed with biotinylated plasma Fn for binding to fibrin coated wells and the extent of inhibition of binding assessed by incubation with alkaline phosphatase-conjugated streptavidin. […] Biotinylated Fn (100 ng/0.1 ml FBB: 2.3 nM) was combined with increasing concentrations (0-10 μM) of either unlabeled Fn, the 25.9 kDa proteolytic fragment, or the separate ^4 F1.^5 F1, and ^10 F1 recombinant modules and incubated with the fibrin-coated microtiter wells for 1 hour at 22° C. […] Bound biotinylated Fn was quantitated as described above.

B1: tPA preparation of Husain et al.: high-affinity plasminogen activator preparation of Husain et al. (1981) (protein, UniProt P00750 36-562, looked up)
Tissue-type plasminogen …: SYQVICRDEKTQMIYQQHQSWLRPVLRSNRVEYCWCNSGRAQCHSVPVKSCSEPRCFNGGTCQQALYFSDFVCQCPEGFAGKCCEIDTRATCYEDQGISYRGTWSTAESGAECTNWNSSALAQKPYSGRRPDAIRLGLGNHNYCRNPDRDSKPWCYVFKAGKYSSEFCSTPACSEGNSDCYFGNGSAYRGTHSLTESGASCLPWNSMILIGKVYTAQNPSAQALGLGKHNYCRNPDGDAKPWCHVLKNRRLTWEYCDVPSCSTCGLRQYSQPQFRIKGGLFADIASHPWQAAIFAKHRRSPGERFLCGGILISSCWILSAAHCFQERFPPHHLTVILGRTYRVVPGEEEQKFEVEKYIVHKEFDDDTYDNDIALLQLKSDSSRCAQESSVVRTVCLPPADLQLPDWTECELSGYGKHEALSPFYSERLKEAHVRLYPSSRCTSQHLLNRTVTDNMLCAGDTRSGGPQANLHDACQGDSGGPLVCLNDGRMTLVGIISWGLGCGQKDVPGVYTKVTNYLDWIRDNMRP
In the case of B1, the “arginine concentration eluting from solid phase fibrin” value with fibrin [1] is recorded as 0.2 mM.

B2: ^1 F1: recombinant first type 1 module of fibronectin, amino acids 1-61 (protein)
chain: [pGlu]AQQMVQPQSPVAVSQSKPGCYDNGKHYQINQQWERTYLGNALVCTCYGGSRGFNCESKPE
modifications: not fully specified; also: major species lacks N-terminal Gln-Ala, its new N-terminal Gln3 is pyroglutamate
For the molecule B2, the “inhibition of the binding of Fn to fibrin (non-binding modules)” value in the experiment on fibrin [2] is recorded as < 20%.

B3: ^1 F1.^2 F1: recombinant fibronectin module pair, first and second type 1 modules, amino acids 1-106; negative control (protein)
chain: QAQQMVQPQSPVAVSQSKPGCYDNGKHYQINQQWERTYLGNALVCTCYGGSRGFNCESKPEAEETCFDKYTGNTYRVGDTYERPKDSMIWDCTCIGAGRGRISCTI
modifications: N-terminal pyroglutamate; the major species lacks the NH2-terminal Gln-Ala dipeptide and its new N-terminal Gln is also pyroglutamate
notes: recombinant fibronectin module pair, first and second type 1 modules, amino acids 1-106; negative control
As for B3, in the experiment with fibrin [3], the “% of protein that did not bind to fibrin-Sepharose (unbound fraction)” value is given as ~100% and the “binding to fibrin-Sepharose” value is on record as “none was present”. For the same molecule, the “inhibition of the binding of Fn to fibrin (non-binding modules)” value in the experiment on fibrin [2] is listed as < 20%. The “inhibition of biotinylated Fn binding (non-fibrin-binding modules)” value with fibrin [4] is listed as 15%.
